What was measured:
[1] = molecular target: T1, extracellular domain of FGFR2c protein (Example 1) (UniProt P21802 22-377); assay: phage ELISA
T1 construct: extracellular domain

[2] = molecular target: T1, extracellular domain of FGFR2c protein …; assay: phage ELISA; remark: listed apart in the source
[3] = molecular target: T2, FGFR4 (acro) (UniProt P22455 22-369); assay: ELISA
T2 sequence (looked up): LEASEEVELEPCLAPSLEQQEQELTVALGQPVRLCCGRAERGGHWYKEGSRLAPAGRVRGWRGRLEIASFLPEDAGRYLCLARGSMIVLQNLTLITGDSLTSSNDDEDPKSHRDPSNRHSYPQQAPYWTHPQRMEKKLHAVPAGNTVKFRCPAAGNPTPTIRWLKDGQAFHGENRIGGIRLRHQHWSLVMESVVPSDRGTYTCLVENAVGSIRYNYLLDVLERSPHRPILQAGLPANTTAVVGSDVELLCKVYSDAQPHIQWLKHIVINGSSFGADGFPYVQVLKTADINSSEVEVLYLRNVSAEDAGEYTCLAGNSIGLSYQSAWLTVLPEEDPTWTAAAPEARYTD

[4] = molecular target: T3, recombinant cynomolgus monkey FGFR2b (cynomolgus monkey); assay: ELISA, antibody 1ug/mL
T3 construct: extracellular domain; bought; also called cynomolgus macaque FGFR2b

[5] = molecular target: T2, FGFR4 (acro); assay: ELISA, antibody 10 µg/mL
[6] = molecular target: T4, human FGFR2b (Kaixia Biotechnology, catalog number FGR-HM1BB) (human, UniProt P21802-3 22-378); assay: BLI, antibody on AHC2 sensor
T4 construct: extracellular domain; bought; also called hFGFR2b; human FGFR2b protein
T4 sequence (P21802 other isoform, or with tags, fused parts or gaps): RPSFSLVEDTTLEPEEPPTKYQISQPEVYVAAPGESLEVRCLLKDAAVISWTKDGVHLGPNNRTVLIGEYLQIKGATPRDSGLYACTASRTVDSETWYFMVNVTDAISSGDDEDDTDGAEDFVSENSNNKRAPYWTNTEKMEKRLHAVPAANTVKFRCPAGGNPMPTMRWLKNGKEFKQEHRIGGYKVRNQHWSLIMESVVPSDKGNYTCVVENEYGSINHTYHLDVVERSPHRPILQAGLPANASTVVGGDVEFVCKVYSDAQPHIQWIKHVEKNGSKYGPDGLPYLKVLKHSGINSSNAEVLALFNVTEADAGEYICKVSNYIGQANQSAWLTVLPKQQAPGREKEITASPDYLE

[7] = molecular target: T5, FGFR2b on KATO III cells (human, UniProt P21802-3 22-822); assay: flow cytometry, KATO III cells
T5 construct: whole, on cells; also called KATO III cells that overexpress FGFR2b
T5 sequence (P21802 other isoform, or with tags, fused parts or gaps): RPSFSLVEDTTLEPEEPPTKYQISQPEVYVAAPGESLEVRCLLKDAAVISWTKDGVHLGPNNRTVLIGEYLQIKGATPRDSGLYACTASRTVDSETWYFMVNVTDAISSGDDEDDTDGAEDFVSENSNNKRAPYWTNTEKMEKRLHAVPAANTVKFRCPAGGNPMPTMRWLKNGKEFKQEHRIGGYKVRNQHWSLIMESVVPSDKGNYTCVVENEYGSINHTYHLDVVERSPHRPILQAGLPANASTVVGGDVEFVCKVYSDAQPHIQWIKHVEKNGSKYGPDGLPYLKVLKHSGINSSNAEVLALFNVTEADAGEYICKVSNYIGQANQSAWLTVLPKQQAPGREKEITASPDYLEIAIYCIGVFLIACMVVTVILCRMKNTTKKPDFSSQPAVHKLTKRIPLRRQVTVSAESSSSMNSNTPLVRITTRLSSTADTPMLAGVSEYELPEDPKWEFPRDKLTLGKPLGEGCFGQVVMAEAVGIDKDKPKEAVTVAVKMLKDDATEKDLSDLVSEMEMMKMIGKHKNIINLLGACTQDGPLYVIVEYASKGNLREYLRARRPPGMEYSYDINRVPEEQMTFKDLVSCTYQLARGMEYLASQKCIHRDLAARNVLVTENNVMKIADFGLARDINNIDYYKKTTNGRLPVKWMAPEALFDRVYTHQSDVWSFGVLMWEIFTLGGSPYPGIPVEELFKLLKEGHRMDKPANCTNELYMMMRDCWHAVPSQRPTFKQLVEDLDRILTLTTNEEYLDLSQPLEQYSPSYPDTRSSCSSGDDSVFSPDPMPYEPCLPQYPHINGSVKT

[8] = molecular target: T4, human FGFR2b (Kaixia Biotechnology, …); assay: ELISA, FGFR2b coated at 1 µg/ml
[9] = molecular target: T6, FGFR2c (acro) (UniProt P21802 22-377); assay: ELISA
T6 sequence (P21802 22-377): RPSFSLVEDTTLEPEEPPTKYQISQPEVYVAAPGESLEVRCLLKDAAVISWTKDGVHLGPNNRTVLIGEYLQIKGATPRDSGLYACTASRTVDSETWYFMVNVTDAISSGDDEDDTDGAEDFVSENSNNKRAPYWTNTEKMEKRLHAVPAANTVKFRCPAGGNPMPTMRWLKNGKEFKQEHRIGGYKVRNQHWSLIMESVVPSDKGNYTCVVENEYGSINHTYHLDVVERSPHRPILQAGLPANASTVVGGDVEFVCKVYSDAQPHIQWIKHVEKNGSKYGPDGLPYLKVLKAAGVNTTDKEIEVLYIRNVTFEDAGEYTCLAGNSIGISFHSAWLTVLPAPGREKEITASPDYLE

[10] = molecular target: T6, FGFR2c (acro); assay: ELISA, antibody 10 µg/mL

T1 sequence (P21802 22-377): as above

B1: 3E1 scFv displayed on phage (scFv)
scFv: QVQLQQPGAEVVKPGASVKMSCKASGYTFTDYYIHWVKQTPGQGLEWIGAIYPDNGDTSYNQKFKVKATLTADKSSSTAYMQLSSLTSEDSAVYYCARAFTYWGQGTLVTVSAGGGGSGGGGSGGGGSDILITQSPASLSASVGETVTITCGASENIYGALNWYQRKQGKSPQLLIYGATNLADGMSSRFSGSGSGRQYSLKISSLHPDDVATYYCQNVLSTPYTFGGGTKLEIK
With B1 the binding result [1] was “no binding” and the “OD (450 nm) value” [2] was 0.056.

B2: 3E2 scFv displayed on phage (scFv)
scFv: EIQLQQSGAELVKPGASVKMSCKASGYTFSFYNMHWVKRTPGQGLEWIGLIYPDNGDTSYNQKFKGKATLTADTSSSTAYMQLSSLTSEDSAVYYCARGGLDYWGQGTSLTVSSGGGGSGGGGSGGGGSNIVMTQSQKFMSTSVGDRVSVTCKASQNVGTNVAWYQQKPGQSPKALIYSASYRYTGVPDRFTGSGSGTDFTFTISSVQAEDLAVYYCQQHYSTPYTFGGGTKLEIK
In the case of B2, the binding result [1] is reported as “no binding” and the “OD (450 nm) value” [2] is reported as 0.036.

B3: 3A3 scFv displayed on phage (scFv)
scFv: QVQLQQSGAELVKPGASVKMSCKASGYTFTTYNIHWVRQTPGQGLEWIGLIYPDNGDTSYNQKFKAKATLTADKSSSTAYMHLSSLTSEDSAVYYCARGGFDYWGQGTTLTVSSGGGGSGGGGSGGGGSDIVMTQSHKFMSTSVGDRVSITCKASQDVNTDVSWYQQKPGQSPKLLIYSASYRYTGVPTRFTGSGSGTDFTFTISGVQAEDLADYYCQQHYNTPYTFGGGTRLEIK
B3 was tested, and the binding result [1] was “no binding” and the “OD (450 nm) value” [2] was 0.05.

B4: 3C7 scFv displayed on phage (scFv)
scFv: EIQLQQSGAELVKPGASVKMSCKASGYIFRNYYIHWVKRTPGQGLEWIGAIYPDNGDTSYNQRFKVKATLTADTSSSTAYMQLSSLTSEDSAVYYCARAFTYWGQGTTLTVSSGGGGSGGGGSGGGGSDIQMIQSPASLSASVGETVTITCGASENIYGALNWYQRKQGKSPQLLIYGATNLADGMSSRFSGSGSGRQYSLKISSLHPDDVATYYCQNVLSTPYTFGGGTKLEIK
In the case of B4, the binding result [1] is reported as “no binding” and the “OD (450 nm) value” [2] is reported as 0.04.

B5: 1A3 scFv-Fc (Fc fusion)
chain: QVQLQQPGAELVKPGASVKMSCKASGYTFASYNLHWVKQTPGQGLEWIGLIYPENGDTSYNQKFKGKATLTADKSSSTAYIQLSSLTSEDSAVYFCARGGFDYWGQGTTLTVSQGGGGSGGGGSGGGGSDIQMTQSPASLSASVGETVTITCGASENIYGALNWYQRKQGKSPQLLIYGATNLADGMSSRFSGSGSGRQYSLKISSLHPDDVATYYCQNVLSTPYTFGGGTKLEIKESKYGPPCPPCPAPEAAGGPSVFLFPPKPKDTLMISRTPEVTCVVVDVSQEDPEVQFNWYVDGVEVHNAKTKPREEQFNSTYRVVSVLTVLHQDWLNGKEYKCKVSNKGLPSSIEKTISKAKGQPREPQVYTLPPSQEEMTKNQVSLTCLVKGFYPSDIAVEWESNGQPENNYKTTPPVLDSDGSFFLYSKLTVDKSRWQEGNVFSCSVMHEALHNHYTQKSLSLSLG
notes: scFv-Fc dimer
B5 was tested, and the binding result [3] was “no binding (tested: 10 µg/mL)”, the “OD (450 nm) value” [4] was 3.27 and the “OD (450 nm) value” [5] was 0.099. It also gave a Kd [6] of 12.2 nM, a koff [6] of 0.00477 s⁻¹ and a kon [6] of 392000 M⁻¹ s⁻¹. It also gave an EC50 [7] of 0.0656 µg/mL and an EC50 [8] of 0.00818 µg/mL.

B6: 3G10 scFv displayed on phage (scFv)
scFv: EVQLQQSGPELVKPGASVKMSCKASGYTFATYNMHWVKQTTGQGLEWIGAIYPDNGDTFYNRKFKDKATLTADKSSTTAYMQLSSLTSEDSAVYYCARGDFAYWGQGTLVTVSAGGGGSGGGGSGGGGSDVLMTQSPASLSASVGETVTITCGASENIYGALNWYQRKQGKSPQLLIYGATNLADGMSSRFSGSGSGRQYSLKISSLHPDDVATYYCQNVLSTPYTFGGGTKLEMK
With B6 the binding result [1] was “no binding” and the “OD (450 nm) value” [2] was 0.042.

B7: 3D7 scFv-Fc (Fc fusion)
chain: QVQLQQSGAELVKPGASVKMSCKASGYTFSFYNMHWVKRTPGRGLEWIGLIYPDNGDTSYNQKFKGKATLTADTSSSTAYMQLSSLTSEDSAVYYCARGGLDYWGQGTSLTVSSGGGGSGGGGSGGGGSEIVLTQSPASLAVSLGQRATISCKASQSVDYDGDSYMNWYQQKPGQPPKLLIYGISNRFSGVPDRFSGSGSGTDFTLKISTIKPEDLGMYYCLQGTHQPYTFGGGTKLEIKESKYGPPCPPCPAPEAAGGPSVFLFPPKPKDTLMISRTPEVTCVVVDVSQEDPEVQFNWYVDGVEVHNAKTKPREEQFNSTYRVVSVLTVLHQDWLNGKEYKCKVSNKGLPSSIEKTISKAKGQPREPQVYTLPPSQEEMTKNQVSLTCLVKGFYPSDIAVEWESNGQPENNYKTTPPVLDSDGSFFLYSKLTVDKSRWQEGNVFSCSVMHEALHNHYTQKSLSLSLG
notes: scFv-Fc dimer
In the case of B7, the binding result [9] is reported as “no binding (tested: 10 µg/mL)”, the “OD (450 nm) value” [4] is reported as 3.3 and the “OD (450 nm) value” [10] is reported as 0.127. For the same binder, the Kd [6] was 8.58 nM, the koff [6] was 0.00203 s⁻¹ and the kon [6] was 236000 M⁻¹ s⁻¹. The EC50 [7] was 0.259 µg/mL and the EC50 [8] was 0.0369 µg/mL.

B8: 1D7 scFv displayed on phage (scFv)
scFv: QIQLQQSGAELVKPGASVKMSCKASGYTFRYYNMHWVKRTPGQGLEWIGLIYPDNGDTSYNQKFKGKATLTADTSSSTAYMQLSSLTSEDSAVYYCARGGLDYWGQGTSLTVSSGGGGSGGGGSGGGGSDIQMTQSPSSMSASLGDRITITCQATQDIVKNLNWYQQKPGKPPSFLIYYATELAEGVPSRFSGSGSGSDYSLTISNLESEDFADYYCLQFYEFPLTFGAGTKLELK
With B8 the binding result [1] was “no binding” and the “OD (450 nm) value” [2] was 0.059.

B9: 2B2 scFv displayed on phage (scFv)
scFv: QLQLQQSGAELVKPGASVKMSCKASGYTFASYNLHWVKQTPGQGLEWIGLIYPENGDTSYNQKFKDKATLTADKSSTTAYIQLSSLASEDSAVYFCARGGFDYWGQGTTLTVSSGGGGSGGGGSGGGGSDIVMTQSQKFMSTSVGDRVSVTCKASQNVGTNVAWYQQKPGQSPKALIYSASYRYSGVPDRFTGSGSGTDYTLTISSVQAEDLALYYCQQHYSTPYTFGGGTKLELK
B9 was tested, and the binding result [1] was “no binding” and the “OD (450 nm) value” [2] was 0.051.

B10: 3G10 scFv-Fc (Fc fusion)
chain: EVQLQQSGPELVKPGASVKMSCKASGYTFATYNMHWVKQTTGQGLEWIGAIYPDNGDTFYNRKFKDKATLTADKSSTTAYMQLSSLTSEDSAVYYCARGDFAYWGQGTLVTVSAGGGGSGGGGSGGGGSDVLMTQSPASLSASVGETVTITCGASENIYGALNWYQRKQGKSPQLLIYGATNLADGMSSRFSGSGSGRQYSLKISSLHPDDVATYYCQNVLSTPYTFGGGTKLEMKESKYGPPCPPCPAPEAAGGPSVFLFPPKPKDTLMISRTPEVTCVVVDVSQEDPEVQFNWYVDGVEVHNAKTKPREEQFNSTYRVVSVLTVLHQDWLNGKEYKCKVSNKGLPSSIEKTISKAKGQPREPQVYTLPPSQEEMTKNQVSLTCLVKGFYPSDIAVEWESNGQPENNYKTTPPVLDSDGSFFLYSKLTVDKSRWQEGNVFSCSVMHEALHNHYTQKSLSLSLG
notes: scFv-Fc dimer
For B10, the binding result [9] was “no binding (tested: 10 µg/mL)”, the “OD (450 nm) value” [4] was 3.12 and the “OD (450 nm) value” [10] was 0.096. For the same binder, the Kd [6] was 6.25 nM, the koff [6] was 0.00199 s⁻¹ and the kon [6] was 318000 M⁻¹ s⁻¹. For the same binder, the EC50 [7] was 0.149 µg/mL and the EC50 [8] was 0.0276 µg/mL.

B11: 1B8 scFv displayed on phage (scFv)
scFv: QIQLQQSGAELVKPGASVKMSCKASGYTFASYNLHWVKQTPGQGLEWIGLIYPENGDTSYNQKFKGKATLTADTSSTTAYIQLSSLTSEDSAVYFCARGGFDYWGQGTSLTVSSGGGGSGGGGSGGGGSDIKMTQSPASLSASVGETVTITCGASENIYGALNWYQRKQGKSPQLLIYGATNLADGMSSRFSGSGSGRQYSLKISSLHPDDVATYYCQNVLSTPYTFGGGTKLEIK
In the case of B11, the binding result [1] is reported as “no binding” and the “OD (450 nm) value” [2] is reported as 0.082.

B12: 1G6 scFv displayed on phage (scFv)
scFv: EIQLQQSGAELVKPGASVKMSCKASGYTFRYYNMHWVKRTPGQGLEWIGLIYPDNGDTSYNQKFKGKATLTADTSSSTAYMQLSSLTSEDSAVYYCARGGLDYWGQGTSLTVSSGGGGSGGGGSGGGGSNIVMTQSHKFMSTSVGDRVSITCKASQDVNTDVAWYQQKPGQSPKLLIYSASYRYTGVPTRFTGSGSGTDFTFTISGVQAEDLADYYCQQHYNTPYTFGGGTKLELK
For B12, the binding result [1] was “no binding” and the “OD (450 nm) value” [2] was 0.073.

Source: patent EP4714976A1 (Sunshine Lake Pharma Co., Ltd., dated 2026)
